B1: TAF11 (natural protein)
chain: MTEPQGPLDTIPKVNYPPILTIANYFSTKQMIDQVISEDQDYVTWKLQNLRTGGTSINNQLNKYPKYKYQKTRINQQDPDSINKVPENLIFPQDILQQQTQNSNYEDTNTNEDENEKLAQDEQFKLLVTNLDKDQTNRFEVFHRTSLNKTQVKKLASTVANQTISENIRVFLQAVGKIYAGEIIELAMIVKNKWLTSQMCIEFDKRTKIGYKLKKYLKKLTFSIIENQQYKQDYQSDSVPEDEPDFYFDDEEVDKRETTLGNSLLQSKSLQQSDHNSQDLKLQLIEQYNKLVLQFNKLDVSIEKYNNSPLLPEHIREAWRLYRLQSDTLPNAYWRTQGEGQGSMFR
B2: TAF1 (natural protein)
chain: MVKQQGSGKTNLANEDEAYEAIFGGEFGSLEIGSYIGGDEGANSKDYTEHLPDAVDFEDEDELADDDDDLPEESDANLHPAMMTMGAYDDVNENGAVLGIDSNSLNMQLPEINGDLSQQFILEDDGGTPATSNALFMGMDANEIHLATETGVLDGSGANEIGHSQLSIGGVNGNDMSINGGFIMEPDMSDGKHKKATKLDLINHEKYLLKKYFPDFEKGKILKWNKLIYRRSVPYHWHSEISRVKKPFMPLNLKFKVQQDDKRLFNSRTISYVAPIYQGKNNLLQSNSSASRRGLIHVSIDELFPIKEQQKKRKIIHDEKTISEDLLIATDDWDQEKIINQGTSSTATLADSSMTPNLKFSGGYKLKSLIEDVAEDWQWDEDMIIDAKLKESKHAELNMNDEKLLLMIEKTNNLAQQKQQLDSSNLILPLNETILQQKFNLSNDDKYQILKKTHQTKVRSTISNLNIQHSQPAINLQSPFYKVAVPRYQLRHFHRENFGSHIRPGTKIVFSKLKARKRKRDKGKDVKESFSTSQDLTIGDTAPVYLMEYSEQTPVALSKFGMANKLINYYRKANEQDTLRPKLPVGETHVLGVQDKSPFWNFGFVEPGHIVPTLYNNMIRAPVFKHDISGTDFLLTKSSGFGISNRFYLRNINHLFTVGQTFPVEEIPGPNSRKVTSMKATRLKMIIYRILNHNHSKAISIDPIAKHFPDQDYGQNRQKVKEFMKYQRDGPEKGLWRLKDDEKLLDNEAVKSLITPEQISQVESMSQGLQFQEDNEAYNFDSKLKSLEENLLPWNITKNFINSTQMRAMIQIHGVGDPTGCGEGFSFLKTSMKGGFVKSGSPSSNNNSSNKKGTNTHSYNVAQQQKAYDEEIAKTWYTHTKSLSISNPFEEMTNPDEINQTNKHVKTDRDDKKILKIVRKKRDENGIIQRQTIFIRDPRVIQGYIKIKEQDKEDVNKLLEEDTSKINNLEELEKQKKLLQLELANLEKSQQRRAARQNSKRNGGATRTENSVDNGSDLAGVTDGKAARNKGKNTTRRCATCGQIGHIRTNKSCPMYSSKDNPASPK

Molecular target: T1, TAP-tagged HMO1 (S. cerevisiae, UniProt Q03973 1-246)
T1 sequence: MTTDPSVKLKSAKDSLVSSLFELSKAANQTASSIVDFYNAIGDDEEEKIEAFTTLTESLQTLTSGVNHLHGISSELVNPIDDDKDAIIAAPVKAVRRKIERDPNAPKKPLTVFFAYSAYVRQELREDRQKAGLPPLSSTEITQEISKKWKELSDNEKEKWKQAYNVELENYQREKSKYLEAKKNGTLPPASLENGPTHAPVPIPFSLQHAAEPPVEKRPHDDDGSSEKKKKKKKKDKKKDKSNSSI
Test: TAP purification with immunoblot

Row | Binder | percent recovered with HMO1-TAP [%]
1 | B1 | ~0.01
2 | B2 | ~0.01

— article PMC2275077 (Nucleic Acids Research, 2008)
